Publication doi:10.1101/2024.09.19.614007 (bioRxiv, 2024)

Target: the molecule itself
Experiment: cryo-EM structure

B1: Escherichia coli glutamate kinase (enzyme, UniProt P0A7B5 1-367, looked up)
chain: MSDSQTLVVKLGTSVLTGGSRRLNRAHIVELVRQCAQLHAAGHRIVIVTSGAIAAGREHLGYPELPATIASKQLLAAVGQSRLIQLWEQLFSIYGIHVGQMLLTRADMEDRERFLNARDTLRALLDNNIVPVINENDAVATAEIKVGDNDNLSALAAILAGADKLLLLTDQKGLYTADPRSNPQAELIKDVYGIDDALRAIAGDSVSGLGTGGMSTKLQAADVACRAGIDTIIAAGSKPGVIGDVMEGISVGTLFHAQATPLENRKRWIFGAPPAGEITVDEGATAAILERGSSLLPKGIKSVTGNFSRGEVIRICNLEGRDIAHGVSRYNSDALRRIAGHHSQEIDAILGYEYGPVAVHRDDMITR
- stoichiometry N: 4
